Source: patent publication US20040086863A1

Columns and labels:
[1] = target: IRS-1, endogenous in Rat-1 fibroblasts and L6GLUT4myc myoblasts (UniProt P35570); assay: cell-based or functional assay
[2] = target: IRS-1, endogenous in COS cells; assay: cell-based or functional assay
Chain of IRS-1, endogenous in COS cells (Q28224 whole entry): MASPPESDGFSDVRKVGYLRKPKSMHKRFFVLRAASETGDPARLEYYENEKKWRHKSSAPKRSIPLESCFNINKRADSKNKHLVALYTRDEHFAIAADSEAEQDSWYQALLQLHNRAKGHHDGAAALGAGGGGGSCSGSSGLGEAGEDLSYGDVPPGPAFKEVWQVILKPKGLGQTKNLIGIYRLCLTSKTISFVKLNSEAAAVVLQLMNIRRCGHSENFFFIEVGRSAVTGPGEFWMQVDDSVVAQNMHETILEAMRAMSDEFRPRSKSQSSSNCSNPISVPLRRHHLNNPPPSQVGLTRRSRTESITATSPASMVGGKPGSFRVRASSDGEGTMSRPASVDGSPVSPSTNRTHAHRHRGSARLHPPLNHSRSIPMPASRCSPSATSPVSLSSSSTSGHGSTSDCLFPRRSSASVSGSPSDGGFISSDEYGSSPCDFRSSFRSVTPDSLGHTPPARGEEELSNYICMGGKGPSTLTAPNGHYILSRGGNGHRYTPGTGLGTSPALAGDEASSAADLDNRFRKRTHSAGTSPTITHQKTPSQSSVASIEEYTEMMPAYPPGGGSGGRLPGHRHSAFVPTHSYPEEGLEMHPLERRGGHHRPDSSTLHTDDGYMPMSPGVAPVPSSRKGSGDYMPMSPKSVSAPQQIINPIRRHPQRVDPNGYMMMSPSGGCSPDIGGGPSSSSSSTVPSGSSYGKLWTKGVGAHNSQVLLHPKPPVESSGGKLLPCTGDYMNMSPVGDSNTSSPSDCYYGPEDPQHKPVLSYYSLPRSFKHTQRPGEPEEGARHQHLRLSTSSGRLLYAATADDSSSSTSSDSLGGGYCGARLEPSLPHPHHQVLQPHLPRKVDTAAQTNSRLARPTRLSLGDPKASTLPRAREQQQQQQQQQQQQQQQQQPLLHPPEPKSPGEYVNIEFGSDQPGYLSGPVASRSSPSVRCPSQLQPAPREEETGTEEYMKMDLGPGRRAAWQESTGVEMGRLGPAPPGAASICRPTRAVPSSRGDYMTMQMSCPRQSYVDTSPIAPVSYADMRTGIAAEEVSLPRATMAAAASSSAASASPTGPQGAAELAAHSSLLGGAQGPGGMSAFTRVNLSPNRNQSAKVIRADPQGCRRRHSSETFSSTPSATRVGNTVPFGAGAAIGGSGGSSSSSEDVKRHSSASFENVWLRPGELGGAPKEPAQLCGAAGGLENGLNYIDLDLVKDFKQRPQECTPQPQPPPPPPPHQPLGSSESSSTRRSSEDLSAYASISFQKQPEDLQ

Chain of IRS-1, endogenous in Rat-1 fibroblasts and L6GLUT4myc myoblasts (P35570 whole entry): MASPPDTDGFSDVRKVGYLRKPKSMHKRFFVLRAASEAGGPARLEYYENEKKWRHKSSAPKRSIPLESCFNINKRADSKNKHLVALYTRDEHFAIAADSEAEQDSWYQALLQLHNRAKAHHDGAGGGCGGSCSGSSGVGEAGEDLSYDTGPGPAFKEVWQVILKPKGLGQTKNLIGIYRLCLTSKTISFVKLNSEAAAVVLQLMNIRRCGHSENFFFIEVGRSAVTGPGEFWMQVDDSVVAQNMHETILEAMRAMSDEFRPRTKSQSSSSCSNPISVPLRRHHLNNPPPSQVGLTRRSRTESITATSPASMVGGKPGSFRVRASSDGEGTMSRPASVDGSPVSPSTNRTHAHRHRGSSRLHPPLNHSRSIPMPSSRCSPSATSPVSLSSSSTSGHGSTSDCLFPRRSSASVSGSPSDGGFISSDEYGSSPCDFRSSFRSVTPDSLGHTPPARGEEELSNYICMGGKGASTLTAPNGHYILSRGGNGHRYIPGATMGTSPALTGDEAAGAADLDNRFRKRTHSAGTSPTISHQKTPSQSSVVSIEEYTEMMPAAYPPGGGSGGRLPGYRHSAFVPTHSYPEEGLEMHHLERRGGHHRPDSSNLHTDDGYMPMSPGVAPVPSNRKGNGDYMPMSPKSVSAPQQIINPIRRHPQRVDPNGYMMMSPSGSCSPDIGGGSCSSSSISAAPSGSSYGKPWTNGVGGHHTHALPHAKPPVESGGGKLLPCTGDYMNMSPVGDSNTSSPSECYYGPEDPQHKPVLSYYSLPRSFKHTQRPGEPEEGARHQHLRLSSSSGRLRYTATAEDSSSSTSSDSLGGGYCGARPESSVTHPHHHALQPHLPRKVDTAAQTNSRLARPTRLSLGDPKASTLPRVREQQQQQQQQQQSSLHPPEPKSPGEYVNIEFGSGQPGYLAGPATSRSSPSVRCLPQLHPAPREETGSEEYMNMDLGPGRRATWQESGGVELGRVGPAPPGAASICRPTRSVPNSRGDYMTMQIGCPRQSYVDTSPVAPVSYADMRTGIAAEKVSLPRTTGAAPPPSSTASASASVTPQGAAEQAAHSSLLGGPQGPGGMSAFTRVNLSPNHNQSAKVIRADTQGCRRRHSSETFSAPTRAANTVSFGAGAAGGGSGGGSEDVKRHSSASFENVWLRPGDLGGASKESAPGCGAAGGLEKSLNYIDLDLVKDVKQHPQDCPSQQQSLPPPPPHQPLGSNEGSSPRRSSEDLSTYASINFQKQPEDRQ

In the case of “HA-tagged dominant-negative PHIP (DN-PHIP), PHIP PBR region alone (residues 8-209) (from UniProt Q8VDD9 927-1128)”, the insulin-dependent GLUT4myc membrane translocation in L6GLUT4myc myoblasts [1] is reported as greater than 90% and the IRS-1 tyrosine phosphorylation in insulin-treated cells [2] is reported as greater than 5 fold.
